“Also recorded” adds a separate entry of the source.
Assays:
[1] = system: ovarian cancer cell lines; assay: Cisplatin IC50 in multiple ovarian cancer cell lines; assay type: cell-based, human; details: OVCAR8 and SKOV3ip1 cells, p<0.001
Experimental: (§1) Established ovarian cancer cell lines were obtained from the ATCC (OVCAR8, OVCAR5) and the University of Texas M.D. Anderson Cancer Center (HEYA8, SKOV3ip1). All cell lines were maintained at 37° C. in RPMI 1640 media (Invitrogen, Carlsbad, Calif.) supplemented with 10% fetal bovine serums (Hyclone, Logan, Utah) and 1% penicillin/streptomycin (Gibco, Carlsbad, Calif.). MicroRNA mimics and mimic controls (Dharmacon, Lafayette, Colo.) were transiently transfected into actively growing cultures using Lipofectamine 2000 (Invitrogen, Carlsbad, Calif.). After a 24-hour incubation, transfected cultures were washed, passaged and seeded into 96 well plates. Proliferation and apoptosis were measured at 72, 96 and 120 hours after transfection using standard assays (Cell Titer 96 Aqueous One; Caspase Glo 3/7; Promega, Madison, Wis.). pLemiR expression vectors (Open Biosystems/Thermo, Huntsville, Ala.) were prepared according to manufacturer's instructions and transfected into cells using Fugene 6 (Roche, Indianapolis, Ind.). Following transfection, stable clones were selected using puromycin (Invitrogen) at doses optimized for each line. […] Viability was assessed across a clinically relevant range of cisplatin concentrations using an MTS assay (Promega). […]

OVCAR8 cells [2] = assay: Spheroid formation; assay type: cell-based, human; details: cells stably expressing mimics
ATM = assay: Western blot of ATM in OVCAR8 cells; assay type: cell-based, human; details: for ATM degradation / cleavage product (ΔATM): OVCAR8, increasing concentrations of cisplatin; for ATM protein expression: OVCAR8 stably expressing the microRNA vs non-silencing control or empty vector
Experimental: Whole cell lysates equivalent to 30 μg of protein were resolved on 4-12% gradient SDS-PAGE. Resolved proteins were transferred onto PVDF membranes using the iBlot system (Invitrogen). Rabbit polyclonal and/or mouse monoclonal antibodies specifically recognizing ATM, phospo-ATM (Ser1981) CHK1 phospho-CHK1 (Ser216), p21, phospo-CHK2 ([…]), BCL2, XIAP, CDC25A were obtained from Cell Signaling Technologies (Danvers, Mass.). A rabbit polyclonal antibody recognizing FANCD2 was also purchased from Abcam (Cambridge, Mass.). Protein expression was visualized using species-specific, horseradish peroxidase-conjugated secondary antibody (Cell Signaling) and ECL Plus chemiluminescent substrate (Amersham, Buckinghamshire, UK).

HEY cells = assay: Apoptosis assay (Caspase Glo 3/7); assay type: cell-based, human; details: mimic transfection
Experimental: (§2) Established ovarian cancer cell lines were obtained from the ATCC (OVCAR8, OVCAR5) and the University of Texas M.D. Anderson Cancer Center (HEYA8, SKOV3ip1). All cell lines were maintained at 37° C. in RPMI 1640 media (Invitrogen, Carlsbad, Calif.) supplemented with 10% fetal bovine serums (Hyclone, Logan, Utah) and 1% penicillin/streptomycin (Gibco, Carlsbad, Calif.). MicroRNA mimics and mimic controls (Dharmacon, Lafayette, Colo.) were transiently transfected into actively growing cultures using Lipofectamine 2000 (Invitrogen, Carlsbad, Calif.). After a 24-hour incubation, transfected cultures were washed, passaged and seeded into 96 well plates. Proliferation and apoptosis were measured at 72, 96 and 120 hours after transfection using standard assays (Cell Titer 96 Aqueous One; Caspase Glo 3/7; Promega, Madison, Wis.). pLemiR expression vectors (Open Biosystems/Thermo, Huntsville, Ala.) were prepared according to manufacturer's instructions and transfected into cells using Fugene 6 (Roche, Indianapolis, Ind.). Following transfection, stable clones were selected using puromycin (Invitrogen) at doses optimized for each line. Rates of proliferation and apoptosis were examined in stable transfectants 24, 48, 72 and 96 hours after selected cells had been passaged and dispensed into 96 well plates. Viability was assessed across a clinically relevant range of cisplatin concentrations using an MTS assay (Promega). Cisplatin was obtained from Teva Pharmaceuticals (Irvine, Calif.).

OVCAR5 = assay: Apoptosis assay (Caspase Glo 3/7); assay type: cell-based, human; details: OVCAR5, mimic transfection
Experimental: as §2

SKOV3ip1 cells [3] = assay: Apoptosis assay (Caspase Glo 3/7); assay type: cell-based, human
Experimental: as §2

OVCAR8 cells [4] = assay: Apoptosis assay (Caspase Glo 3/7); assay type: cell-based, human
Experimental: as §2

HEYA8 cells = assay: Apoptosis assay (Caspase Glo 3/7); assay type: cell-based, human; details: HEYA8, acute mimic transfection
Experimental: as §2

SKOV3ip1 cells [5] = assay: Proliferation assay (MTS, Cell Titer 96 Aqueous One); assay type: cell-based, human; details: no cisplatin
Experimental: as §2

OVCAR8 cells [6] = assay: as above; assay type: cell-based, human; details: for Proliferation: no cisplatin
Experimental: as §2

OVCAR8 xenografts = assay: Survival and tumor response of xenografted mice treated with cisplatin; assay type: in vivo
Experimental: Permission to perform animal experiments was obtained from the Institutional Animal Care and Use Committee (IACUC) for Baylor College of Medicine. Eight-week female athymic (Foxn1^nu/nu) mice were purchased from the National Cancer Institute-Charles River and maintained on a standard diet ad lib. Each animal was inoculated intraperitoneally with 2.5×10^6 cells stably transfected with vector driving miR-520h, a non-targeting miRNA control or empty vector. Expression of miR-520h was measured in cell lines using Taqman assays immediately prior to inoculation. Tumor xenografts were followed weekly for tumor progression or regression using the Image Station In-Vivo FX system (Kodak Molecular Imaging Systems, New Haven, Conn.) using endogenous RFP encoded by the pLemiR vector as a tag. At each time point, mice were anesthetized with isoflurane and placed in an imaging chamber, after which, fluorescent intensity images with x-ray overlay were obtained and analyzed. At the completion of the study, mice were euthanized after sedation under isoflurane (Abbott Laboratories, North Chicago, Ill.). For experiments involving treatment, cisplatin was administered at 5 mg/kg to mice by tail vein injection weekly for 4 weeks, after which, 1.5 mg/kg was administered biweekly. Tumor volume and distribution for all animals in each experiment were documented and correlated with imaging results.
To determine whether expression of miR-520h impacted responses of ovarian cancer xenografts to systemically administered chemotherapy, the inventors inoculated Fox1nu/nu mice with 4×10^6 OVCAR8 cells stably expressing either miR-520h mimic, a non-targeting mimic control or empty vector. Once tumor implants were readily palpable, weekly administration of cisplatin equivalent to a dose of 5 mg/kg was initiated and given weekly for a total of 4 weeks. This course of treatment was specifically used to mimic the typical course experienced by women undergoing treatment for this illness. […] This observation is consistent with a sensitization of ovarian cancer cells to cisplatin by miR-520h mimic. Cisplatin was continued approximately biweekly at a reduced dose of 1.5 mg/kg until disease progression requiring euthanasia of animals by IACUC criteria. […] In contrast, median survival for animals xenografted with OVCAR8 cells stably transfected with empty vector or OVCAR8 cells stably expressing non-targeting microRNA control was 79 days and 90 days, respectively.

[7] = system: established ovarian cancer cell lines; assay: Proliferation or apoptosis in established ovarian cancer cell lines after mimic transfection; assay type: cell-based, human; details: mimics vs control cultures; cell lines SKOV4, HEY, OVCAR8, OVCAR5
Experimental: as §1

UPSC Ark1 cells = assay: Cisplatin dose response in uterine cancer cells stably transfected with lentiviral vector; assay type: cell-based; details: UPSC Ark1 cells expressing miR-520h vs non-targeting miRNA control
Experimental: UPSC Ark1 cells stably transfected with lentiviral vector driving the expression of either miR-520h or a non-targeting miRNA control were incubated with increasing concentrations of cisplatin.

B1: hsa-mir-520h MI0003175 (nucleic acid, listed as Homo sapiens)
chain: UCCCAUGCUGUGACCCUCUAGAGGAAGCACUUUCUGUUUGUUGUCUGAGAAAAAACAAAGUGCUUCCCUUUAGAGUUACUGUUUGGGA
modifications: expressed or natural sequence
notes: synthetic mimic or stably expressed from pLemiR vector; written miR-520g/h interchangeably
Reduction of IC50 for cisplatin [1]: ≤ 4 fold
Capacity to form spheroids (OVCAR8 cells [2]): decreased capacity to form spheroids
ATM degradation / cleavage product (ΔATM) (ATM): induced both the phosphorylation and degradation
ATM degradation / cleavage product (ΔATM) (ATM; listed as MiR-520h): promotes a proteolytic degradation
ATM degradation / cleavage product (ΔATM) (ATM; listed as miR-520g/h): increased levels
Phosphorylated ATM level (ATM; OVCAR8 stably expressing the microRNA): decreased levels
ATM protein expression (ATM): decreased levels
ATM protein expression (ATM; listed as Mir-520g/h): markedly reduced
ATM protein expression (ATM; listed as miR-520g/h): significantly less
Apoptosis (HEY cells): no impact
Apoptosis (OVCAR5): no impact
Apoptosis (caspase 3/7) (SKOV3ip1 cells [3]; SKOV3ip1, acute mimic transfection, no cisplatin): decreasing apoptosis
Caspase 3/7 expression (SKOV3ip1 cells [3]; SKOV3ip1 clones stably expressing the microRNA, no cisplatin): inhibited
Apoptosis in presence of cisplatin (SKOV3ip1 cells [3]; SKOV3ip1 stable clones, cisplatin treatment): significantly increased
Caspase 3/7 expression (OVCAR8 cells [4]; OVCAR8 clones stably expressing the microRNA, no cisplatin): inhibited
Apoptosis in presence of cisplatin (OVCAR8 cells [4]; OVCAR8 stable clones, cisplatin up to 10 μg/mL, listed as miR-520g/h): significantly decreased; also recorded: significantly lower rates of apoptosis
Apoptosis (HEYA8 cells): increase rates of apoptosis
Proliferation (SKOV3ip1 cells [5]; SKOV3ip1, acute mimic transfection): significantly reduced
Proliferation (SKOV3ip1 cells [5]; SKOV3ip1 clones stably expressing the microRNA): enhanced the proliferation
Proliferation (OVCAR8 cells [6]; OVCAR8, transient/acute mimic transfection vs non-silencing control): significantly reduced
Proliferation (OVCAR8 cells [6]; OVCAR8, transient/acute mimic transfection vs non-silencing control, listed as Mir-520g/h): significantly increased
Proliferation (OVCAR8 cells [6]; OVCAR8 clones stably expressing the microRNA): enhanced the proliferation
Increase in proliferation (OVCAR8 cells [6]; mimic, transient, 96 hours following transfection, vs non-silencing control): 19%
Mean survival (OVCAR8 xenografts; 4×10^6 OVCAR8 cells, cisplatin 5 mg/kg weekly 4 weeks then 1.5 mg/kg biweekly): 114 days
Mean survival (OVCAR8 xenografts; biweekly maintenance IV regimen of 5 mg/m^2 cisplatin): 130 days
Xenograft response to cisplatin regimen (OVCAR8 xenografts; cisplatin 5 mg/kg weekly for 4 weeks): nearly complete elimination of disease
Increase in survival vs empty vector control (OVCAR8 xenografts; cisplatin-treated xenografted animals): ~44%
Median survival (OVCAR8 xenografts; mice xenografted with 2.5×10^6 OVCAR8 cells expressing the mimic, cisplatin doses, controls 90 and 79 days): 113 days
Implant size at necropsy (OVCAR8 xenografts; vs non-targeting mimic control or empty vector): significantly smaller
Impact on proliferation or apoptosis [7]: significantly impacted
Reduction of IC50 for cisplatin (UPSC Ark1 cells): more than 90%
